Several values for one entry are separate records, joined by “and”; a condition that tells them apart may be missing. Equal entries are not always repeated.
How the values were obtained:
[1] = biological target: the molecule itself; experiment: non-reducing SDS-PAGE and Western blot; sequential extracts (buffer 1: 0.15 M NaCl; buffer 2: 1 M NaCl, 10 mM EDTA; buffer 3: 4 M GuHCl, 10 mM EDTA) of knee cartilage of 3-week-old mice, non-reducing 4-13.5% gels; oligomers assigned by apparent size
[2] = biological target: the molecule itself; experiment: non-reducing SDS-PAGE and Western blot; total protein lysates of isolated chondrocytes of 5-day-old mice, 4-12% gels, non-reduced against reduced (0.1 M DTT); oligomers assigned by apparent size

Protein	stoichiometry N [1]	stoichiometry N [2]
matrilin-4 (mouse) (natural protein, mouse (endogenous in mouse cartilage), UniProt O89029 22-624, looked up, matrilin-4, mouse, endogenous in cartilage) QLQSAGPRCYNGPLDLVFMIDSSRSVRPFEFETMRQFLVGLLRSLDVGLNATRVGVIQYSSQVQSVFPLGAFSRREDMERAIRAVVPLAQGTMTGLAIQYAMNVAFSEAEGARPSEERVPRVLVIVTDGRPQDRVAEVAAQARARGIEIYAVGVQRADVGSLRTMASPPLDQHVFLVESFDLIQEFGLQFQGRLCGKDLCAELVHGCQHLCVNAPGTFYCACNSGYKLAPDNKNCLALDLCAEGTHGCEHLCVNSVDSYFCRCRAGFALQQDQRSCRAIDYCSFGNHSCQHECVSTLAGPQCRCREGHDLLPDGRSCRVRDFCNGVDHGCEFQCVSEGLSFHCLCPEGRRLQADGKSCDRCREGHVDLVLLVDGSKSVRPQNFELVKRFVNQIVDFLDVSPEGTRVGLVQFSSRVRTEFPLGRYGTAAEVKQAVLAVEYMERGTMTGLALRHMVEHSFSEAQGARPRDLNVPRVGLVFTDGRSQDDISVWAARAKEEGIVMYAVGVGKAVEEELREIASEPSELHVSYSPDFSTMTHLLENLKGSICPEEGIGAGTELRSPCECESLVEFQGRTLGALESLTQNLARLTERLEELENQLASRK	2 and 3	–
cartilage oligomeric matrix protein (COMP), wild type, mouse (natural protein, cartilage oligomeric matrix protein, mouse, endogenous in chondrocytes; The text calls the retained form consistent with a tetramer; also called wild type COMP; source: endogenous, lysate of isolated costal chondrocytes of Matn3 V194D mice) not shown	–	4
